Reference: patent US20230002466A1 (ELPIS BIOPHARMACEUTICALS, published 2023)

T1: human IL2Rα Fc fusion protein (human, UniProt P01589 22-213, limits assumed)
T1 construct: also called Recombinant Fc-tagged human IL2Rα; not shown: Fc
T1 sequence (looked up): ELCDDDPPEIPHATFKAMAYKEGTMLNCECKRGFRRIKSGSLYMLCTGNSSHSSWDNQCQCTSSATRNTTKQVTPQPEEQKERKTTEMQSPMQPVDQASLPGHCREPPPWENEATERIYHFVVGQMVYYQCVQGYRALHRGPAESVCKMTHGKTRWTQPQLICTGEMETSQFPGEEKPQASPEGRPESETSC

T2: human IL2Rβ Fc fusion protein (human, UniProt P14784 27-239)
T2 construct: also called Recombinant Fc-tagged human IL2Rβ; not shown: Fc
T2 sequence (looked up): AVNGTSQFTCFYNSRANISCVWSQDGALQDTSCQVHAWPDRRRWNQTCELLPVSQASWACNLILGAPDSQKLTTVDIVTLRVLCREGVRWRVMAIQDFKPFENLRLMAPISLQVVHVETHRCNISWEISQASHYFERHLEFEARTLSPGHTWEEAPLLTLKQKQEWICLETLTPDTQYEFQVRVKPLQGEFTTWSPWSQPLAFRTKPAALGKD

T3: human IL2Rβ (human, UniProt P14784 27-239)
T3 construct: also called IL2β; CD122
T3 sequence (looked up): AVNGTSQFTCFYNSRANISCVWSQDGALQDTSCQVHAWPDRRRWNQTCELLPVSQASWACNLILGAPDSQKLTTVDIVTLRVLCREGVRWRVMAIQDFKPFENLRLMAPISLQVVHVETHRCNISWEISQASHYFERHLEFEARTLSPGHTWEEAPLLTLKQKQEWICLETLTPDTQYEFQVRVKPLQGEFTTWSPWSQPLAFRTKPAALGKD


What was measured:
[1] = target: T1, human IL2Rα Fc fusion protein; experiment: ELISA, receptor-Fc coated, anti-Flag HRP
Description: (§1) Briefly, 384 well plate was immobilized with human IL2Rα and IL2Rβ Fc fusion proteins at a final concentration of 2 ug/mL in 1×PBS in total volume of 25 uL per well. The plate was incubated overnight at 4 C and blocked with 80 uL of superblock per well for 1 hour. […] Each dilution was added to IL2Rα or IL2Rβ wells in parallel in duplicates. The IL2 mutant binding was detected by adding 25 uL of anti-Flag HRP diluted at 1:5000 in 1×PBST. In between each step, the plate was washed three times with 1×PBST using a plate washer. The plate was then developed with 25 uL of TMB substrate for five minutes and stopped by adding 25 ul of 2N sulfuric acid. The plate was read at OD450 nm Biotek plate reader and the EC50 was analyzed with Prism 8.1 software to generate EC50 values (FIG. 15A for IL2Rα, and FIG. 15B for IL2Rβ, summarized in Table 9).

[2] = target: T2, human IL2Rβ Fc fusion protein; experiment: ELISA, receptor-Fc coated, anti-Flag HRP
Description: as §1

[3] = target: T1, human IL2Rα Fc fusion protein; experiment: ELISA, single point, Fc-tagged human IL2Rα coated, anti-His-HRP; concentration not printed (Example 14)
Description: (§2) Recombinant Fc-tagged human IL2Rα and IL2Rβ were added in 25 uL of 1×PBS to wells of 384-well plate and incubated overnight at 4° C. to coat the plates. Plates were washed three times with 0.05% Tween20/1×PBS. Plates were blocked with 100 uL of SuperBlock for 1 hr at RT and then washed 3 times with 0.05% Tween20/1×PBS. IL2 mutants were diluted in 0.05% Tween 20/1×PBS from 1000 nM to 0 nM and added to plates for 2 hrs at room temperature. Plates were then washed 6 times with 0.05% Tween20/1×PBS. Anti-HisTag-HRP was diluted 1:5000 in 0.05% Tween20/1×PBS and added to plates for 1 hr at RT. Plates were then washed 6 times with 0.05% Tween 20/1×PBS, and TMB was added to develop blue color. Reactions were stopped with 2N […] and light absorbance at 450 nm was read on a BioTek plate reader.

[4] = target: T2, human IL2Rβ Fc fusion protein; experiment: ELISA, Fc-tagged receptor coated, anti-HisTag-HRP
Description: as §2

human IL2Rβ = target: T3, human IL2Rβ; experiment: SPR, IL2Rβ captured on Protein A chip
Description: Kinetic analysis of the receptor binding activities of IL2Rβ agonist with IL2Rα reduced activity mutations have been assessed by SPR technology with Biacore T200. The assay was run with Biacore T200 control software version 2.0. For each cycle, 1 ug/mL of human IL2Rβ was captured for 60 seconds at flow rate of 10 ul/min on flow cell 2 in 1×HBSP buffer on Protein A sensor chip. 100 nM of HIS and Flag tag purified each IL2 mutant was 2 fold serial diluted and injected onto both reference flow cell 1 and IL2Rβ captured flow cell 2 for 150 seconds at flow rate of 30 ul/mins followed by wash for 300 seconds. The flow cells were then regenerated with Glycine pH2 for 60 seconds at flow rate of 30 ul/mins. The assay was set up with 8 serial diluted concentration points in 96 well format. The kinetics data was analyzed with Biacore T200 evaluation software 3.0. The specific binding response unit was derived from subtraction of binding to reference flow cell 1 from target flow cell 2.

Row | Binder | EC50 [1] | EC50 [2] | binding result [3] | also measured
1 | EP254 (ligand, not shown: His and Flag tags) APTSSSTKKTQLQLEHLLLDLQMILNGINNYKNPKLTRMLTFKFYMPKKATELKHLQCLEEELKPLEEVLNLAQSKNFHLTARDLISNIRVIIQELKGSETTFMCEYADETATIVEFLNRWITFCQSIISTLT | 4.3 nM | 556 nM |  | 
2 | EP255 (ligand, not shown: His and Flag tags) APTSSSTKKTQLQLEHLLLDLQMILNGINNYKNPKLTRMLTFKFYMPKKATELKHLQCLEEELKPLEEVLNLAQSKNFHLTARDLIDNINVIIQELKGSETTFMCEYADETATIVEFLNRWITFCQSIISTLT | 4.3 nM | 360 nM |  | 
3 | EP256 (ligand, not shown: His and Flag tags) APTSSSTKKTQLQLEHLLLDLQMILNGINNYKNPKLTRMLTFKFYMPKKATELKHLQCLEEELKPLEEVLNLAQSKNFHLTARDLIDNIRVIVQELKGSETTFMCEYADETATIVEFLNRWITFCQSIISTLT | 5.3 nM | 362 nM |  | 
4 | EP261 (ligand, not shown: His and Flag tags) APTSSSTKKTQLQLEHLLLDLQMILNGINNYKNPKLTRMLTFKFYMPKKATELKHLQCLEEELKPLEEVLNLAQSKNFHLTARDAIDNINVIVQELKGSETTFMCEYADETATIVEFLNRWITFCQSIISTLT | 2.9 nM | 124 nM |  | 
5 | EP262 (ligand, not shown: His and Flag tags) APTSSSTKKTQLQLEHLLLDLQMILNGINNYKNPKLTRMLTFKFYMPKKATELKHLQCLEEELKPLEEVLNLAQSKNFHLTARDAIDNINVIILELKGSETTFMCEYADETATIVEFLNRWITFCQSIISTLT | 32.1 nM | 53.2 nM |  | 
6 | EP330 (ligand, not shown: His and Flag tags) APTSSSTKKTQLQLEHLLLDLQMILNGINNYKNPGLTEMLTFKFYMPKKATELKHLQCLEEELKPLEEVLNLAQSKNFHLTARDAISNINVIIQELKGSETTFMCEYADETATIVEFLNRWITFCQSIISTLT |  |  | no binding (tested: not printed) | 
7 | EP331 (ligand, not shown: His and Flag tags) APTSSSTKKTQLQLEHLLLDLQMILNGINNYKNPGLTEMLTFKFYMPKKATELKHLQCLEEELKPLEEVLNLAQSKNFHLTPRDAIDNIRVIVQELKGSETTFMCEYADETATIVEFLNRWITFCQSIISTLT |  |  | no binding (tested: not printed) | EC50 [4]: 39.3 nM
8 | EP332 (ligand, not shown: His and Flag tags) APTSSSTKKTQLQLEHLLLDLQMILNGINNYKNPGLTEMLTFKFYMPKKATELKHLQCLEEELKPLEEVLNLAQSKNFHLTPRDAIDNIRVIILELKGSETTFMCEYADETATIVEFLNRWITFCQSIISTLT |  |  | no binding (tested: not printed) | EC50 [4]: 44 nM
9 | EP334 (ligand, not shown: His and Flag tags) APTSSSTKKTQLQLEHLLLDLQMILNGINNYKNPSLTRMLTGKFYMPKKATELKHLQCLEEELKPLEEVLNLAQSKNFHLTARDAISNINVIIQELKGSETTFMCEYADETATIVEFLNRWITFCQSIISTLT |  |  | no binding (tested: not printed) | EC50 [4]: 28.6 nM
10 | EP410 (ligand, not shown: His and Flag tags) APTSSSTKKTQLQLEHLLLDLQMILNGINNYKNPKLTVMLTFKFSMPKKATELKHLQCLEEELKPLEEVLNLAQSKNFHLTARDAVDNMRVIIQELKGSETTFMCEYADETATIVEFLNRWITFCQSIISTLT |  |  |  | Kd (human IL2Rβ): 0.827 nM; koff (human IL2Rβ): 0.00594 s⁻¹; kon (human IL2Rβ): 7.19e+06 M⁻¹ s⁻¹
11 | EP411 (ligand, not shown: His and Flag tags) APTSSSTKKTQLQLEHLLLDLQMILNGINNYKNPKLTVMLTFKFSMPKKATELKHLQCLEEELKPLEEVLNLAQSKNFHLGVTDSISNAIVLARELKGSETTFMCEYADETATIVEFLNRWITFCQSIISTLT |  |  |  | Kd (human IL2Rβ): 0.461 nM; koff (human IL2Rβ): 0.000839 s⁻¹; kon (human IL2Rβ): 1.82e+06 M⁻¹ s⁻¹
